Measurements as given in PMC3981807.

Substrate: O=P(O)(O)O[C@H]1[C@H](OP(=O)(O)O)[C@@H](OP(=O)(O)O)[C@H](OP(=O)(O)O)[C@@H](OP(=O)(O)O)[C@H]1OP(=O)(O)O
Assay: purified protein
Settings: 50 mM sodium acetate pH 4.0, 50 °C, ionic strength 50 mM (NaCl), 3 min, sodium phytate 0.006-0.800 mM

B1: Bd1204 (Bdellovibrio bacteriovorus HD100) (protein)
chain: QKSVSLTPDKPVSTKIPFFMTRPQPTTPVELVFDKDHAAPKPMNYRKSDSLRMSGSATFSPKALKEVAKPVKKNKASLYVFDLRQESHGLINDIPVTWYADRDWANADLNHEEAVRRERRLLGDLRVGDKIGTTAIQSIETEESMIRTGGHQYVRLTVTDHVRPVDSEVDRFIESVRALPENAWVHFHCRAGKGRTTTFMVLYDMLKNAKTDSFEEIIKRNTELSNDYDVLTVPADEKDWKYPYQKERAAFVTEFYNYAKAHPNGEGMLWGEWVLR
With B1 as the protein, how does the Km read?
Its Km is 574 µM.

What about the kcat of the same protein?
The kcat was 124 s⁻¹.
